Laboratory results published in patent US20220204611A1 (Amgen, published 2022).

T1: human TREM2 on cells (human, UniProt Q9NZC2 19-230)
T1 sequence: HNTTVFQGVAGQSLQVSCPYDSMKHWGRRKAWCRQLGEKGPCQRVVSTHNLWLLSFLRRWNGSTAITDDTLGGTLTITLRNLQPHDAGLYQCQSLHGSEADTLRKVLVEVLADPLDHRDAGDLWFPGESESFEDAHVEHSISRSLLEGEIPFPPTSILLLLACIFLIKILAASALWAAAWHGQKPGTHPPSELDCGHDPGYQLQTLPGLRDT

T2: recombinant soluble human TREM2 protein (human TREM2 ECD-FlagHis) (human, UniProt Q9NZC2 19-174)
T2 sequence: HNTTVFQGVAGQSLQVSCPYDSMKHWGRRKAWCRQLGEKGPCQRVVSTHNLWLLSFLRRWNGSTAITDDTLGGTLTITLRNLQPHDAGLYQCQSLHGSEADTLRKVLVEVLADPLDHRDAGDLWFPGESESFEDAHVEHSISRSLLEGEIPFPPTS

T3: soluble human TREM2 protein (TREM2 ECD-huIgG1 Fc fusion protein) (human, UniProt Q9NZC2 19-174, biotinylated)
T3 construct: also called biotinylated soluble human TREM2 protein
T3 sequence: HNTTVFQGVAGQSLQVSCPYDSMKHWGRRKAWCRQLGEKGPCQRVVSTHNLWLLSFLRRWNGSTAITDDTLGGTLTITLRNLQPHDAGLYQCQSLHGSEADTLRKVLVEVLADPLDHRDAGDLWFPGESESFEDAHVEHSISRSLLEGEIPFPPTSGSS


Columns and labels:
human TREM2 on cells [1] = biological target: T1, human TREM2 on cells; assay: cell-based or functional assay
human TREM2 on cells [2] = biological target: T1, human TREM2 on cells; assay: cell-based or functional assay; remark: listed apart in the source
[3] = biological target: T2, recombinant soluble human TREM2 protein …; assay: Octet BLI binning; competitor: load Ab 4C5
Procedure: (§1) Each of sixteen different anti-TREM2 antibodies produced from hybridomas were quantitated and loaded onto one of the anti-human Fc sensors at 5 μg/mL for 2 minutes (“Load Antibody”). The sensor was then blocked with 100 μg/mL of an irrelevant human IgG2 antibody for 5 minutes. […] Next, each of the sixteen different anti-TREM2 antibodies (“Sandwich Antibody”) was added to the sensor at 5 μg/mL and allowed to bind for 5 minutes. All assay buffers contained 10 mM Tris (pH 7.6), 0.1% Triton X-100, 150 mM NaCl, 1 mM CaCl₂, and 1 mg/mL BSA. The assay was conducted at 25° C. Experimental kinetic results were fit to a 1:1 binding model.
(§2) However, if addition of the sandwich antibody produces a binding event, then the sandwich antibody binds to a different epitope on human TREM2 than the load antibody and the two antibodies are categorized into different epitope bins.

[4] = biological target: T2, recombinant soluble human TREM2 protein …; assay: Octet BLI binning; competitor: load Ab 5E3
Procedure: as §1, §2

[5] = biological target: T2, recombinant soluble human TREM2 protein …; assay: Octet BLI binning; competitor: load Ab 6E7
Procedure: as §1, §2

[6] = biological target: T2, recombinant soluble human TREM2 protein …; assay: Octet BLI binning; competitor: load Ab 10E3
Procedure: as §1, §2

[7] = biological target: T2, recombinant soluble human TREM2 protein …; assay: Octet BLI binning; competitor: load Ab 13E7
Procedure: as §1, §2

[8] = biological target: T2, recombinant soluble human TREM2 protein …; assay: Octet BLI binning; competitor: load Ab 16B8
Procedure: as §1, §2

[9] = biological target: T2, recombinant soluble human TREM2 protein …; assay: Octet BLI binning; competitor: load Ab 24F4
Procedure: as §1, §2

[10] = biological target: T2, recombinant soluble human TREM2 protein …; assay: Octet BLI binning; competitor: load Ab 24G6
Procedure: as §1, §2

[11] = biological target: T2, recombinant soluble human TREM2 protein …; assay: Octet BLI binning; competitor: load Ab 26F2
Procedure: as §1, §2

[12] = biological target: T2, recombinant soluble human TREM2 protein …; assay: Octet BLI binning; competitor: load Ab 32E3
Procedure: as §1, §2

[13] = biological target: T2, recombinant soluble human TREM2 protein …; assay: Octet BLI binning; competitor: load Ab 4G10
Procedure: as §1, §2

[14] = biological target: T2, recombinant soluble human TREM2 protein …; assay: Octet BLI binning; competitor: load Ab 24A10
Procedure: as §1, §2

[15] = biological target: T2, recombinant soluble human TREM2 protein …; assay: Octet BLI binning; competitor: load Ab 25F12
Procedure: as §1, §2

[16] = biological target: T2, recombinant soluble human TREM2 protein …; assay: Octet BLI binning; competitor: load Ab 26A10
Procedure: as §1, §2

[17] = biological target: T2, recombinant soluble human TREM2 protein …; assay: Octet BLI binning; competitor: load Ab 26C10
Procedure: as §1, §2

[18] = biological target: T2, recombinant soluble human TREM2 protein …; assay: Octet BLI binning; competitor: load Ab 33B12
Procedure: as §1, §2

[19] = biological target: T3, soluble human TREM2 protein (TREM2 …); assay: ELISA, hybridoma supernatant on captured biotinylated TREM2 ECD-Fc
Procedure: Exhausted hybridoma supernatants were tested for binding to human TREM2 by ELISA. Briefly, neutravidin plates were generated by incubating a 384 well Corning Assay Plate 3702 with neutravidin (Thermo 3100B) at 10 μg/mL (40 μL/well) in 1× PBS at 4° C. overnight. The plates were washed with 1× PBS using a Biotek plate washer and then blocked with 1% milk/1× PBS (90 μL/well) at room temperature (RT) for 30 minutes. The plates were then washed again with 1× PBS using the plate washer. […] The plates were then incubated at RT for 1 hour to immobilize the TREM2 protein to the wells of the plates. Following the incubation, the plates were again washed with 1× PBS using the plate washer. 10 μL of each hybridoma supernatant to be tested and 40 μL of 1% milk/1× PBS (1:5 dilution) were added to each well of the plates and incubated at RT for 1 hour. Again, the plates were washed with 1× PBS using the plate washer. […] After the plates were washed with 1× PBS using the plate washer, 40 μL/well of TMB substrate (Neogen, lot #150114) was added to the plates and the plates were incubated at RT for 30 minutes. The reaction was quenched with 1N hydrochloric acid (40 uL/well) following the incubation period. OD readings at 450 nm were obtained with a plate reader.

Binder | pSyk EC50 (human TREM2 on cells [1]) [nM] | Emax (% maximum activation compared to RnD antibody) (human TREM2 on cells [2]) [%] | pSyk EC50, differentiated THP-1 cells (human TREM2 on cells [2]) [nM] | sandwich binding signal [3] | sandwich binding signal [4] | sandwich binding signal [5] | sandwich binding signal [6] | sandwich binding signal [7] | sandwich binding signal [8] | sandwich binding signal [9] | sandwich binding signal [10] | sandwich binding signal [11] | sandwich binding signal [12] | sandwich binding signal [13] | sandwich binding signal [14] | sandwich binding signal [15] | sandwich binding signal [16] | sandwich binding signal [17] | sandwich binding signal [18] | OD 450 [19] [OD450]
26F2 (antibody, V domains shown, human IgG2 from hybridoma) VH: EVQLVESGGALVQPGGSLRLSCAASGFTFSSFGMSWVRQAPGKGLEWISYISSSSFTIYYADSVKGRFTISRDNAKNSFYLQMNSLRDEDTAVYFCAREGGITMVRGVSSYGMDVWGQGTTVTVSS VL: not shown | 1.4 | 207 | 0.0778 | 0.368 | -0.014 | 0.523 | 0.275 | 0.294 | -0.003 | 0.477 | 0.399 | -0.008 | 0.411 | 0.334 | 0.49 | 0.366 | 0.009 | -0.003 | -0.009 | 1.48
32E3 (antibody, human IgG2, V domains shown, human IgG2 from hybridoma) VH: EVQLVQSGAEVKKPGESLKISCKGSGYSFTSYWIGWVRQMPGKGLEWMGIIYPGDSDTRYSPSFQGQVTISADKSISTAYLQWSTLKASDTAIYYCARHDIIPAAPGAFDIWGQGTMVTVSS VL: EFVLTQSPGTLSLSPGERATLSCRASQIISSNYLAWYQQKPGQAPRLLIYSASSRATGIPDRFSGSGSGTDFTLTISRLEPEDFAVYYCQQFDSSPITFGRGTRLDIK | 1.2 | 197 | 1.25 | -0.016 | 0.176 | -0.024 | -0.023 | -0.027 | 0.12 | -0.021 | 0.126 | 0.143 | -0.01 | -0.02 | 0.162 | 0.154 | 0.157 | 0.141 | 0.132 | 1.41
